Tests used:
[1] = biological target: RBD (SARS-CoV-2, UniProt P0DTC2 319-591); assay: ELISA and biolayer interferometry (BLI)
[2] = biological target: T1, NTD (UniProt P0DTC2 14-303); assay: ELISA and biolayer interferometry (BLI)
T1 construct: domain: NTD; also called N-terminal domain

B1: antibody SC45 (antibody, V domains shown)
VH: QVQLQESGPGLVKSSETLSLTCTVSGGSISSYYWSWIRQPPGKGLEWIGCIYSSGSTNYNPSLKSRVTISVDSSKNQFSLRLNSVTAADTAVYYCARHKGTDFWSGYSFTPRGGWFDPWGQGALVSVSS
VL: DIQMTQSPSSLSASVGDRVTITCRASQSISSYLNWYQQKPGKAPKLLIYGASNLQSGVPSRFSGSGSETDFTLTISSLQPEDFASYYCQQSHSIPVTFGQGTKLEIK
[1]
  binding result: no binding
[2]
  binding result: no binding
